For the assay, the target named is anti-E7 mAb. Kind of assay: ELISA. The note with it: read off a plot.
“recombinant His-E7 protein of HPV16 (from UniProt P03129) C24P” displayed a response of 1.3 OD450.

Substance “recombinant His-E7 protein of HPV16 (from UniProt P03129) D36H” gave a response of 1.3 OD450.

Regarding “recombinant His-E7 protein of HPV16 (from UniProt P03129) E10Q”, the response is 1.1 OD450.

The substance “recombinant His-E7 protein of HPV16 (from UniProt P03129) E18Q” had a response of 1 OD450.

As for “recombinant His-E7 protein of HPV16 (from UniProt P03129) L22A”, the response is 1 OD450.

(Values after paper PMC7408665.)
